Assay: label from the status in PepcDB records

MANEATQELFQVLDNTAIILQNELEISYLEAVYETGENLFQKEVLQKEELSSEKQLKLQESYESIELENFSNEEIRKGLQLALLKGMKHGIQVNHQMTPDSIGFIVAYLLEKVIQKKKNISILDPACGTANLLTTVINQLELKGDVDVHASGVDVDDLLISLALVGADLQRQKMTLLHQDGLANLLVDPVDVVISDLPVGYYPDDENAKTFELCREEGHSFAHFLFIEQGMRYTKPGGYLFFLVPDAMFGTSDFAKVDKFIKKNGHIEGIIKLPETLFKSEQARKSILILRKADVNVKPPKEVLLANLSSLTDPSVTAPILAEIENWFKSKQ
protein production: not failed

MANFEDFLTLDLRIGTVTHAEEFKEARVPAIKLEIDFGELGMKQSSAQITKRYNPEDLIGQQIVAVVNFPPKRVAGFKSEVLVLGGVPEAGDVVLLQPNMELPNGTKIS
protein production: not failed

MANFIEKITYLGTPAIKAGNEHLEMIVVPEWGSNVISLVDKTTNVQLLREPETAESFHDTPTLYGIPILFPPNRISDGTFSFRGRTYHFDINEKDKHNHLHGFLYHEKWNVVTTKQTDEGVIVETEIDLSELPHVQKQFPHHAVVRMTYTIKENTLFKHATVMNKGKEAFPWGIGYHTTFIFPAESSLFSLTADQQWELDERLLPTGKLMDVPYKEALHEGMDLRHKQLDDVFLSSYQKRGGENQAVIYHQHAHISIIYKADEQFKHWVVYNADGKQGYLCPEPYTWVTNAVNLDLPSSLTGLQVLEPGEETTAKSSITIELNHQ
protein production: not failed

MANIDLHFHSRTSDGALTPTEVIDRAAARAPALLALTDHDCTGGLAEAAAAAARRGIPFLNGVEVSVSWGRHTVHIVGLGIDPAEPALAAGLKSIREGRLERARQMGASLEAAGIAGCFDGAMRWCDNPEMISRTHFARHLVDSGAVKDMRTVFRKYLTPGKPGYVSHQWASLEDAVGWIVGAGGMAVIAHPGRYDMGRTLIERLILDFQAAGGQGIEVASGSHSLDDMHKFALHADRHGLYASSGSDFHAPGEGGRDVGHTEDLPPICRPIWRELEARILRP
protein production: failed

MANIFIENSLLFALTQIVPLLYIVTTALYGIHFFKETPLAGSLKQPALILTVVTHVADLGLLTSTAGYRLSYSAYNLMSMVALTLAITYMFIEFTTKSDKTGFFVIAFAAGSALFSSILSSQTVDSGLAFSGLGIGVHLFAAIFGFSSVAIAGLYSGMYLVLFRQIRLNRFGLLFQRLPNLETLEMLIMHAVAFGFFFLSVTIVAGVLEQHASKEVINLFEPRLVSLFVIWALYGISLVIKPLFGWDIKHMAVLLIALFVLVTALLFIMSLVTPSFHGMSI
protein production: failed

MANISLKQGQFVTNSLPNKWKFRNLTKILLRRRFIVLGVSCMVISATSFTAITNKPTYKSQMQILVSPNVSEEVGITNNNIDIPISIEQYSVQKNLMQSSKLIDKVVNLLSFDYPNITKENILGKTENSENSPLKVTQLETNKGAKQVLSPVFEISFQDNDPLKTKKVLLALQKVYQDYNLERRQERFNQGLAFINARLPVIKQQLRQAERKLEQFRKKHNLLDPELQSQVLIKSLTKTQEQLQLTRTQLQDINSRYQNLEERITEASQKALVSMRLAQSSRYKTLTSELQKTEQSLAKEQLRYTDDSPIVQSLKQQRRSQLTLVRQELKRLTAELKTQTTPEPEQLVGVDPNLVEEFVQVQTTALGLIANEKSLRESEQRIRSELSKYPSLIAEYQRLLPEVETQRKTLEQMLQAQQSMGMKIAHGGFDWLVLEEANLGTYVGNDRFWLVFVGMITGPILGVVLALIWGMRHRIIHSAQDLQKVSNLRLLGTVPKLAPRTMEKRLPNLSWLGGRNLTESEEVGNSWLPCHETLDMVYQNTQILKYPFPFKSMMVTSALPGEGRTTLAMGLAASAAHMHRRVLLIDANLRSPKLHKILQLSNDWGLSLLLLDETNTEVQDYIQPIHPSIDILTAGPTPEDAVELLSSQRLKDLIELFEETYDLVLIDAPPILGTVDGRIVASYCHGIMMVGRIGWVTQTELTQAVEILNSLNLVGIIANDMSSYHKG
protein production: failed

MANKQVFPTKGNLIATKKSNALAHMGYELMDRKRNILIREMMGLLDDVKLLRDEITQTYAEAYRALQLANMSLGVISAMAEAVPIDTGLHVSYRSVMGVEIPKLSYDKQEIKPTYGLERANSKLDYAYTCFQRVKEMSVVLAEVENNVYRLANAIRKSQKRANALKNIVIPEFEHNIKFITDALEEKEREEFSRQKVIKRNKDSQMQMERK
protein production: failed

MANKTIAQTGSATSPTTNKSGTYVEVPLQDTIPIIFVPGIMGSNIFNTVLGKPVWMIGNGISGQVKTLTKQMGKTPAELQTELDPLNTRVDTSGDIKVDRRLKLTEKTLRERYWGTVHWDSYGGILTYLQMVLNNVDLNEKPIYTTGLGGGYAAVQQMKQQEAVYEWKSLLNQTESSKWFPQQSFVPINQQEIEHLKKFHFPVYAMGYNWLQSSENGAALVAQKLDKIKQEYGARFHKFIIVTHSMGGLLTRRLVQLCSADIAGVV
protein production: failed

Reference: a protein production outcome set (Wang et al. 2014)
